Source: paper PMC6006169, “Conformational switching in the coiled-coil domains of a proteasomal ATPase regulates substrate processing” (Nature Communications, 2018)
Numbering of substitutions follows the chain as printed. Names may count otherwise.

Key:
[1] = target: CC-OB domain fragment of PAN-M87C (subcomplex I) (Methanococcus jannaschii); test: cross-linking; PAN-M87C after partial trypsin proteolysis and gel filtration (Superose 12); fractions 1 and 3 in 1 mM tetrathionate 1 h at room temperature, desalted, non-reducing SDS-PAGE, silver stain
[2] = target: T1, PAN (proteasome-activating nucleotidase) (Methanocaldococcus jannaschii, UniProt Q58576, L73C/M87C); test: NADH-coupled ATP regenerating ATPase assay ([…] nm); type: biochemical; settings: oxidized (tetrathionate): coiled-coil disulfide crosslinked C1 and C3, no saturation with ATP; pH 7.5, 37 °C, 20 mM MgCl2; original residue 73 not given
T1 construct: full-length, pRSETA, E. coli BL21(DE3)-RIL, heat precipitation, anion exchange and size exclusion; no tag mentioned; homohexamer

purified protein = substrate: Nc1ncnc2c1ncn2[C@@H]1O[C@H](COP(=O)(O)OP(=O)(O)OP(=O)(O)O)[C@@H](O)[C@H]1O; test: purified protein; type: biochemical, Methanocaldococcus jannaschii; settings: reduced (uncrosslinked), pH 7.5, 37 °C
[3] = target: the molecule itself; test: cross-linking; disulfide cross-linking of engineered cysteines; 1 mM tetrathionate, 1-2 h, room temperature, 50 mM Tris pH 7.5 + 5% glycerol, no nucleotide, PAN at or below 0.25 mg/ml; desalted on G50, non-reducing SDS-PAGE, Coomassie, densitometry of monomers vs. dimers
[4] = target: the molecule itself; test: native gel or EMSA; native-PAGE of oxidized PAN cysteine mutants

T1 sequence (Q58576 whole entry L73C/M87C): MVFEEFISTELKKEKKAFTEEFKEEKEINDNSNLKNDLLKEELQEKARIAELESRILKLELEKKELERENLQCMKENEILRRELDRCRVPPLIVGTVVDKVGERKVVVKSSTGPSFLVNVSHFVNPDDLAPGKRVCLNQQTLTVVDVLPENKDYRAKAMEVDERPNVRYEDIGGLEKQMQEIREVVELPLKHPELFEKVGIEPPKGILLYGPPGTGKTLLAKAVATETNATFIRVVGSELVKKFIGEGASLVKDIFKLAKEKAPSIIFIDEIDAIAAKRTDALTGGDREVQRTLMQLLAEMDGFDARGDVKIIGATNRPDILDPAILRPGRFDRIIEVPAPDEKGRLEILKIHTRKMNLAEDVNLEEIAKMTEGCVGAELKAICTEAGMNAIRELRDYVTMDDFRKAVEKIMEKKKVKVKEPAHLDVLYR

Molecule: CC-OB domain fragment of PAN-M87C (subcomplex I) (domain or fragment)
- percent cross-linked dimers [1]: 100%

Molecule: Nc1ncnc2c1ncn2[C@@H]1O[C@H](COP(=O)(O)OP(=O)(O)OP(=O)(O)O)[C@@H](O)[C@H]1O [ATP]
- Km [2]: > 3000 µM

B1: PAN 59C (enzyme, Methanococcus jannaschii, UniProt Q58576 1-430, looked up)
chain: MVFEEFISTELKKEKKAFTEEFKEEKEINDNSNLKNDLLKEELQEKARIAELESRILKCELEKKELERENLQLMKENEILRRELDRMRVPPLIVGTVVDKVGERKVVVKSSTGPSFLVNVSHFVNPDDLAPGKRVCLNQQTLTVVDVLPENKDYRAKAMEVDERPNVRYEDIGGLEKQMQEIREVVELPLKHPELFEKVGIEPPKGILLYGPPGTGKTLLAKAVATETNATFIRVVGSELVKKFIGEGASLVKDIFKLAKEKAPSIIFIDEIDAIAAKRTDALTGGDREVQRTLMQLLAEMDGFDARGDVKIIGATNRPDILDPAILRPGRFDRIIEVPAPDEKGRLEILKIHTRKMNLAEDVNLEEIAKMTEGCVGAELKAICTEAGMNAIRELRDYVTMDDFRKAVEKIMEKKKVKVKEPAHLDVLYR
notes: Expressed from pRSETA; no tag named; source: E. coli BL21-DE3-RIL, purified (heat precipitation, anion exchange, size exclusion)
- Km (purified protein; 20 mM MgCl2, original residue 59 not given): 436 ± 29 µM
- percent cross-linked [3]: 69%

B2: PAN 87+73C (enzyme, Methanococcus jannaschii, UniProt Q58576 1-430, looked up)
chain: B1 chain with C59L, L73C, M87C
notes: Expressed from pRSETA; no tag named; also called PAN 87C+73C; source: E. coli BL21-DE3-RIL, purified (heat precipitation, anion exchange, size exclusion)
- stoichiometry N [4]: 6

B3: PAN 87+59C (enzyme, Methanococcus jannaschii, UniProt Q58576 1-430, looked up)
chain: B1 chain with M87C
notes: as for B1
- binding result [3]: binds

B4: PAN 87+80C (enzyme, Methanococcus jannaschii, UniProt Q58576 1-430, looked up)
chain: B1 chain with C59L, L80C, M87C
notes: as for B1
- binding result [3]: binds

B5: PAN 80+59C (enzyme, Methanococcus jannaschii, UniProt Q58576 1-430, looked up)
chain: B1 chain with L80C
notes: as for B1
- binding result [3]: binds

B6: PAN 73C (enzyme, Methanococcus jannaschii, UniProt Q58576 1-430, looked up)
chain: B1 chain with C59L, L73C
notes: as for B1
- binding result [3]: binds

B7: PAN (proteasome-activating nucleotidase) (Methanocaldococcus jannaschii DSM 2661; L59C/L73C/M87C) (protein)
chain: B1 chain with L73C, M87C
notes: full-length, pRSETA, E. coli BL21(DE3)-RIL, heat precipitation, anion exchange and size exclusion; no tag mentioned; homohexamer
- Km (purified protein; 20 mM MgCl2, original residues 73 and 59 not given): 580 ± 64 µM

B8: PAN 80+66C (enzyme, Methanococcus jannaschii, UniProt Q58576 1-430, looked up)
chain: B1 chain with C59L, L66C, L80C
notes: as for B1
- stoichiometry N [4]: 6
- percent cross-linked [3]: 72%

B9: PAN 66C (enzyme, Methanococcus jannaschii, UniProt Q58576 1-430, looked up)
chain: B1 chain with C59L, L66C
notes: as for B1
- binding result [3]: binds

B10: PAN-M87C (proteasome-activating nucleotidase, M87C mutant) (enzyme, Methanococcus jannaschii, UniProt Q58576 1-430, looked up)
chain: B1 chain with C59L, M87C
notes: Expressed from pRSETA; The fraction F1 after partial trypsin proteolysis is called full-length or near full length; also called PAN-87C; M87C PAN; source: E. coli BL21-DE3-RIL, purified (heat precipitation, anion exchange, size exclusion)
- stoichiometry N [4]: 6

B11: PAN 87+73+59C triple mutant (enzyme, Methanococcus jannaschii, UniProt Q58576 1-430, looked up)
chain: B1 chain with L73C, M87C
notes: Expressed from pRSETA; no tag named; also called PAN 87C+73C+59C; source: E. coli BL21-DE3-RIL, purified (heat precipitation, anion exchange, size exclusion)
- percent cross-linked [3]: 74%

B12: PAN 80C (enzyme, Methanococcus jannaschii, UniProt Q58576 1-430, looked up)
chain: B1 chain with C59L, L80C
notes: as for B1
- binding result [3]: binds

B13: PAN 80+73C (enzyme, Methanococcus jannaschii, UniProt Q58576 1-430, looked up)
chain: B1 chain with C59L, L73C, L80C
notes: as for B1
- binding result [3]: binds

B14: PAN 73+66C (enzyme, Methanococcus jannaschii, UniProt Q58576 1-430, looked up)
chain: B1 chain with C59L, L66C, L73C
notes: as for B1
- binding result [3]: binds
